Experimental data from patent US20140303084.
Numbering of substitutions follows the chain as printed.

Tests used:
[1] = tested on: T1, KLTCLASYCWLA
T1 sequence: KLTCLASYCWLA

[2] = tested on: T2, RRAPGK(PEG2-Biotin)LTCLASYCWLFWTGIA
T2 sequence: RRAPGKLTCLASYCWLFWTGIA

[3] = tested on: T3, RRAPGKLT-Dap-LASY-Asp-WLFWTGIA-COOH
T3 sequence: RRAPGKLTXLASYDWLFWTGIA

[4] = tested on: T4, CGGSGGRRAPGKLQCLASYCWLFWTGIAC
T4 sequence: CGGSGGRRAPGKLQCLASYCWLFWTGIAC

[5] = tested on: T5, PRIRTVGPGSRSASGKLTCIASYCWLFWTGIA
T5 sequence: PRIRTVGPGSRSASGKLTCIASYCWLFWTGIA

[6] = tested on: T6, DAKVAKLRCLGSQCWLLQYAPG
T6 sequence: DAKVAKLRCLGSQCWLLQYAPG

[7] = tested on: T7, RRAPGKLTCLASYCWLFWTG-MeIle-A
T7 sequence: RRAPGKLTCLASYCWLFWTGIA

[8] = tested on: T8, RRAPGKLTCLASYCWLF WTGIA RWPSHRSGPS
T8 sequence: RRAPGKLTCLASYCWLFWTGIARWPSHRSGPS

[9] = tested on: T9, KLKCLASYCWLF
T9 sequence: KLKCLASYCWLF

[10] = tested on: T10, KLTCL-Abu-SYCWLF
T10 sequence: KLTCLXSYCWLF

[11] = tested on: T11, rRAPGKLTCLASSCWLFWTGIA
T11 sequence: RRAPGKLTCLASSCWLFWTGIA

[12] = tested on: T12, Palmitoyl-(PEG)27(PEG)27-KLTCLASYCWLF
T12 sequence: KLTCLASYCWLF

[13] = tested on: T13, RRAPGKLQCLASYCWLFATAIA
T13 sequence: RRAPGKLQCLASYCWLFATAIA

[14] = tested on: T14, rRAAGKLTCLASACWLFATGIA
T14 sequence: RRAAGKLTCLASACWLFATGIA

[15] = tested on: T15, RRAPGKLTCLASYCWLF YTGIA HGHPMEHRKS
T15 sequence: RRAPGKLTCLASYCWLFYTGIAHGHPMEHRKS

[16] = tested on: T16, PRIRTVGPGSRSASGKLTCAASYCWLFWTGIA
T16 sequence: T5 sequence with I20A

[17] = tested on: T17, SRSRTVSPGSRSASGKSTCLASYCWLFWTGIA
T17 sequence: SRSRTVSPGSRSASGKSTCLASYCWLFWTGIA

[18] = tested on: T18, C(N-ethylmaleimide)-PEG4-LVPR-PEG4-rRAPGKLTCLASYCWLFWTGIA
T18 sequence: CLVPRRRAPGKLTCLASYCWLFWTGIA

[19] = tested on: T19, compound 20
T19 sequence: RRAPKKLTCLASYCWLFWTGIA

[20] = tested on: T20, SKQGRPISSDrRASGKSTCLASYCWLFWTGIA
T20 sequence: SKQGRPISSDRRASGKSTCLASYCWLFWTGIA

[21] = tested on: T21, KLTCLASQCWLF
T21 sequence: KLTCLASQCWLF

[22] = tested on: T22, RRAPGKLT-Asp-LASY-Orn-WLFWTGIA-CONH2
T22 sequence: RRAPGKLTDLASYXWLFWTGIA

[23] = tested on: T23, RRAPGKLCALASYCWLFWTGIA-CONH2
T23 sequence: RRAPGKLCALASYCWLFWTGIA

[24] = tested on: T24, RRaPGKLTCLASYCWLFWTGIA
T24 sequence: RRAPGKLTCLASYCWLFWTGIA

[25] = tested on: T25, compound 18
T25 sequence: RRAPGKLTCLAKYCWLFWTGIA

[26] = tested on: T26, KLTCLASY-HCy-WLF
T26 sequence: KLTCLASYXWLF

[27] = tested on: T27, SKQGRPISPDrRAAGKLTCLASYCWLF
T27 sequence: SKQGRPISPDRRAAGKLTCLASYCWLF

[28] = tested on: T28, SKQGRPISPDrRAAGKLTCLASYCWLFWTGIA-PEG4-C(N-PEG5k maleimide)
T28 sequence: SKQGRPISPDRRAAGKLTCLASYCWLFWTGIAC

[29] = tested on: T29, PEG16-Lys(PEG2-Biotin)-PEG16-rRAPGKLTCLASYCWLFWTGIA
T29 sequence: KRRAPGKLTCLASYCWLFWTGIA

[30] = tested on: T30, KLTcLASYCWLF
T30 sequence: KLTCLASYCWLF

[31] = tested on: T31, RRAPGKLTCLASYCWLF WAGIA PHRPLKERVR
T31 sequence: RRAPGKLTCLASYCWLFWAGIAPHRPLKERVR

[32] = tested on: T32, RRAPGKLTCLASYCWLF VTGTA HAPRVAPAPA
T32 sequence: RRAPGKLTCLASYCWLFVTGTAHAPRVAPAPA

[33] = tested on: T33, KLTCKASYCWLF
T33 sequence: KLTCKASYCWLF

[34] = tested on: T34, RRAPGCLTALASYAWLCWTGIA-COOH
T34 sequence: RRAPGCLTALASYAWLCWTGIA

[35] = tested on: T35, Lys(palmitoyl)-PEG16-Lys(PEG2-Biotin)-PEG16-rRAPGKLTCLASYCWLFWTGIA
T35 sequence: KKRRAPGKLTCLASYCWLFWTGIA

[36] = tested on: T36, RRAPGKLK(PEG2-Biotin)CLASYCWLFWTGIA
T36 sequence: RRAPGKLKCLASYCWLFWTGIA

[37] = tested on: T37, KLT-Dap-LASY-Glu-WLF
T37 sequence: KLTXLASYEWLF

[38] = tested on: T38, PRIRTVGPGSRSASGKLTCLASACWLFWTGIA
T38 sequence: T5 sequence with I20L, Y23A

[39] = tested on: T39, RRAPGKLTCLASYCWLF WAVIA PPKVKGTRQS
T39 sequence: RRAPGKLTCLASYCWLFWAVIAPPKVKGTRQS

[40] = tested on: T40, GASGRRRTCVASYCLLFQSGLP
T40 sequence: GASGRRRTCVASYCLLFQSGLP

[41] = tested on: T41, RRAPGKLTCLASYCWLF WTGLS RYQWQAQEDV
T41 sequence: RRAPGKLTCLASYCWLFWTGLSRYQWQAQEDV

[42] = tested on: T42, PRIRTVGPGSRSASGKLTCLASYCWLFWTSIA
T42 sequence: T5 sequence with I20L, G30S

[43] = tested on: T43, PSGWAGWAPG RREPG KLTCLASYCWLFWTGIA
T43 sequence: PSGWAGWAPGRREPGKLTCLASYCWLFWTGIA

[44] = tested on: T44, compound 4
T44 sequence: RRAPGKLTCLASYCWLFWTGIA

[45] = tested on: T45, KLTCLASYCWLF-(PEG)4-CONH2
T45 sequence: KLTCLASYCWLF

[46] = tested on: T46, KLT-Dab-LASY-Glu-WLF
T46 sequence: KLTXLASYEWLF

[47] = tested on: T47, kLTCLASYCWLF
T47 sequence: KLTCLASYCWLF

[48] = tested on: T48, RRAPGKLTC-MeLeu-ASYCWLFWTGIA
T48 sequence: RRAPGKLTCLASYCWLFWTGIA

[49] = tested on: T49, k-MeLeu-TCLASFCWLF
T49 sequence: KLTCLASFCWLF

Q: human Factor IXa was tested. Which Vmax, FXa generation assay [1] did it give?
A: > 3

Q: And the “Vmax, FXa generation assay; (++) means 1-2” value (“Vmax … (++) means 1-2” for short) [2]?
A: (++)

Q: And the Vmax, FXa generation assay [3]?
A: > 0.8

Q: And the “Vmax … (++) means 1-2” value [4]?
A: (++)

Q: What about the Vmax, FXa generation assay [5] of the same substance?
A: > 2

Q: What about the “Vmax … (++) means 1-2” value [6] of the same substance?
A: (++)

Q: What about the Vmax, FXa generation assay [7] of the same substance?
A: > 2.3

Q: What about the “Vmax … (++) means 1-2” value [8] of the same substance?
A: (++)

Q: And the Vmax, FXa generation assay [9]?
A: > 3

Q: And the Vmax, FXa generation assay [10]?
A: > 2

Q: What about the “Vmax … (++) means 1-2” value [11] of the same substance?
A: (++)

Q: And the Vmax, FXa generation assay [12]?
A: > 0.3

Q: What about the Vmax, FXa generation assay [13] of the same substance?
A: > 3

Q: And the “Vmax … (++) means 1-2” value [14]?
A: (++)

Q: What about the Vmax, FXa generation assay [15] of the same substance?
A: > 3

Q: And the Vmax, FXa generation assay [16]?
A: > 2

Q: What about the Vmax, FXa generation assay [17] of the same substance?
A: > 3

Q: What about the “Vmax … (++) means 1-2” value [18] of the same substance?
A: (++)

Q: What about the Vmax, FXa generation assay with hFIXa [19] of the same substance?
A: > 2

Q: And the Vmax, FXa generation assay [20]?
A: > 3

Q: And the Vmax, FXa generation assay [21]?
A: > 2

Q: And the Vmax, FXa generation assay [22]?
A: > 2

Q: And the Vmax, FXa generation assay [23]?
A: > 2

Q: And the “Vmax … (++) means 1-2” value [24]?
A: (++)

Q: And the Vmax, FXa generation assay with hFIXa [25]?
A: > 2

Q: And the Vmax, FXa generation assay [26]?
A: > 3

Q: What about the Vmax, FXa generation assay [27] of the same substance?
A: > 3

Q: And the Vmax, FXa generation assay [28]?
A: > 0.5

Q: And the Vmax, FXa generation assay [29]?
A: > 3

Q: And the Vmax, FXa generation assay [30]?
A: > 2

Q: And the Vmax, FXa generation assay [31]?
A: > 2

Q: And the Vmax, FXa generation assay [32]?
A: > 3

Q: What about the Vmax, FXa generation assay [33] of the same substance?
A: > 3

Q: What about the Vmax, FXa generation assay [34] of the same substance?
A: > 0.1

Q: And the Vmax, FXa generation assay [35]?
A: > 3

Q: And the “Vmax … (++) means 1-2” value [36]?
A: (++)

Q: And the “Vmax … (++) means 1-2” value [37]?
A: (++)

Q: And the “Vmax … (++) means 1-2” value [38]?
A: (++)

Q: And the Vmax, FXa generation assay [39]?
A: > 2

Q: And the Vmax, FXa generation assay [40]?
A: > 0.1

Q: What about the Vmax, FXa generation assay [41] of the same substance?
A: > 2

Q: And the Vmax, FXa generation assay [42]?
A: > 3

Q: What about the Vmax, FXa generation assay [43] of the same substance?
A: > 2

Q: And the KM (nM) of hFIXa for FX [44]?
A: 11 nM

Q: And the Vmax, FXa generation assay with hFIXa [44]?
A: > 2

Q: What about the kcat (min^-1) of hFIXa for FX, compound at 1 µM [44] of the same substance?
A: 0.0171 min⁻¹

Q: And the Δ KM (Km compound/Km buffer) [44]?
A: 0.14

Q: And the “Vmax … (++) means 1-2” value [45]?
A: (++)

Q: And the “Vmax … (++) means 1-2” value [46]?
A: (++)

Q: What about the Vmax, FXa generation assay [47] of the same substance?
A: > 2

Q: What about the “Vmax … (++) means 1-2” value [48] of the same substance?
A: (++)

Q: What about the Vmax, FXa generation assay [49] of the same substance?
A: > 2
